Test results reported in publication PMC11467380.
Where two headings read alike, the source gives them in different places.

Experiments:
[1] = biological target: U1 snRNP ΔU1-C, biotinylated on SmF and Cy5-labelled on the U1 snRNA (CoSMoS form) (human) (UniProt P08621); assay: colocalization single molecule spectroscopy
[2] = biological target: U1 snRNP ΔU1-C, biotinylated on SmF and Cy5-labelled on the U1 snRNA (CoSMoS form) (human) (UniProt P08621); assay: colocalization single molecule spectroscopy; remark: listed apart in the source
[3] = biological target: minimal U1 snRNP with U1-C (SPR) (human, UniProt P08621;P62316;P62318;P14678;P62306;P62304;P62308;P09234 …, internal_change); assay: SPR
[4] = biological target: T1, minimal U1 snRNP without U1-C (CoSMoS);U1-C zinc finger (U1-C_61) (human;human, UniProt P08621;P62316;P62318;P14678;P62306;P62304;P62308;P09234 …, internal_change|); assay: single-molecule CoSMoS
[5] = biological target: T1, minimal U1 snRNP without U1-C …; assay: single-molecule CoSMoS; remark: listed apart in the source

Sequence of U1-C_61 (zinc finger region of U1-C) (P09234 1-61): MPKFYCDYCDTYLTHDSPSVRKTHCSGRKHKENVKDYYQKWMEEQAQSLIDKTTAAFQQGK

## U1-C_61 (zinc finger region of U1-C) (from UniProt P09234 1-61) (domain or fragment)
[1]
  EC50: 1.3 nM
[2]
  EC50: 1.8 nM

## CAGGUAAGUAU (ssRNA) [11bp]
[3]
  Kd: 0.203 nM

## CAGAGUAAGUAU (ssRNA) [11bp-1A]
[3]
  Kd: 2.7 nM

## ACACAGAGUAAGUUAACA (ssRNA) [9bp-1A]
[4]
  Kd: 1.2 nM

## ACACAGGUAAGUUAACA (ssRNA) [9bp]
[5]
  Kd: ~0.12 nM
